Results as given in patent US12655198B2.

Biological target: alcohol dehydrogenase (ADH)

B1: CryS96 (αB-crystallin peptide fused with ELP S96) (protein)
chain: GDRFSVNLDVKHFSPEELKVKGVPGSGVPGSGVPGSGVPGSGVPGSGVPGSGVPGSGVPGSGVPGSGVPGSGVPGSGVPGSGVPGSGVPGSGVPGSGVPGSGVPGSGVPGSGVPGSGVPGSGVPGSGVPGSGVPGSGVPGSGVPGSGVPGSGVPGSGVPGSGVPGSGVPGSGVPGSGVPGSGVPGSGVPGSGVPGSGVPGSGVPGSGVPGSGVPGSGVPGSGVPGSGVPGSGVPGSGVPGSGVPGSGVPGSGVPGSGVPGSGVPGSGVPGSGVPGSGVPGSGVPGSGVPGSGVPGSGVPGSGVPGSGVPGSGVPGSGVPGSGVPGSGVPGSGVPGSGVPGSGVPGSGVPGSGVPGSGVPGSGVPGSGVPGSGVPGSGVPGSGVPGSGVPGSGVPGSGVPGSGVPGSGVPGSGVPGSGVPGSGVPGSGVPGSGVPGSGVPGSGVPGSGVPGSGVPGSGVPGSGVPGSGVPGSGVPGSGVPGSGVPGSGVPGSGVPGSGVPGSGY
Question: For B1, which ADH aggregation (optical density at 360 nm, 48° C., 2 h) (% decrease in ADH aggregation) is on record?
Answer: The ADH aggregation (optical density at 360 nm, 48° C., 2 h) (% decrease in ADH aggregation) was 61.
